target: T1, PUF4 RNA-binding domain (Saccharomyces cerevisiae, UniProt P25339 537-888); assay: Mg; RNA-MaP; 20 mM Na-HEPES pH 7.4, 30 mM KOAc, 0.75 mM MgCl2, 0.1% Tween-20, 5% glycerol, 0.1 mg/mL BSA, 2 mM DTT; 25 C; 0.0125-409.6 nM protein; settings: tags: N-His6-TEV cleaved; C-SNAP kept, Cy3B-labelled; label: tethered on chip by stalled RNA polymerase
T1 sequence: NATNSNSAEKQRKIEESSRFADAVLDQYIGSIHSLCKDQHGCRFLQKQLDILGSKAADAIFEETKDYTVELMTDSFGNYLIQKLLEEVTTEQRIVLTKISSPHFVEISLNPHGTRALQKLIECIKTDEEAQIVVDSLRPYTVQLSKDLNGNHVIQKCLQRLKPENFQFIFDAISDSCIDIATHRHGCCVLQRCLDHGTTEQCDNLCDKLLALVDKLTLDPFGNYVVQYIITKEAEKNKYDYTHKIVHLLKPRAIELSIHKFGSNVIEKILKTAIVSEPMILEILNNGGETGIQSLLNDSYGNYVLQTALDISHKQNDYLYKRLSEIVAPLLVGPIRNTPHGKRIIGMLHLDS

Binder	Kd [nM]
UCUCUUUGUACGGCCUCUCUU (ssRNA) [Ic_S1_P4E.1_K4.1_C4.1_H4.1_A4.1_[T5C]_[A6G]_[T7G]_F4.1_[T8C]_[A9C]_T4.1]	> 2300
UCUCUUUGUAGUGUUUCUCUU (ssRNA) [Ic_S1_P4E.1_K4.1_C4.1_H4.1_A4.1_[T5G]_[A6T]_[T7G]_F4.1_[A9T]_T4.1]	736
UCUCUUUGUAGUGUGUCUCUU (ssRNA) [Ic_S1_P4E.1_K4.1_C4.1_H4.1_A4.1_[T5G]_[A6T]_[T7G]_F4.1_[A9G]_T4.1]	575
UCUCUUUGUAGUUACUCUCUU (ssRNA) [Ic_S1_P4E.1_K4.1_C4.1_H4.1_A4.1_[T5G]_[A6T]_F4.1_[T8A]_[A9C]_T4.1]	982
UCUCUUUGUAGUUCUUCUCUU (ssRNA) [Ic_S1_P4E.1_K4.1_C4.1_H4.1_A4.1_[T5G]_[A6T]_F4.1_[T8C]_[A9T]_T4.1]	798
UCUCUUUGUAUAAGUCUCUU (ssRNA) [Ib_S1_P3E.1_K3.1_C3.1_H3.1_A3.1_F3.1_[T7A]_[A8G]_T3.1]	502
UCUCUUUGUACGCACUCUCUU (ssRNA) [Ic_S1_P4E.1_K4.1_C4.1_H4.1_A4.1_[T5C]_[A6G]_[T7C]_F4.1_[T8A]_[A9C]_T4.1]	669
UCUCUUUGUACGGUGUCUCUU (ssRNA) [Ic_S1_P4E.1_K4.1_C4.1_H4.1_A4.1_[T5C]_[A6G]_[T7G]_F4.1_[A9G]_T4.1]	503
UCUCUUUGUAUAAUUCUCUU (ssRNA) [Ib_S1_P3E.1_K3.1_C3.1_H3.1_A3.1_F3.1_[T7A]_[A8T]_T3.1]	9.97
UCUCUUUGUAGUAUAUCUCUU (ssRNA) [Ic_S1_P4E.1_K4.1_C4.1_H4.1_A4.1_[T5G]_[A6T]_[T7A]_F4.1_T4.1]	11.2
UCUCUUUGUAGUCCAUCUCUU (ssRNA) [Ic_S1_P4E.1_K4.1_C4.1_H4.1_A4.1_[T5G]_[A6T]_[T7C]_F4.1_[T8C]_T4.1]	1510
UCUCUUUGUAGUUCCUCUCUU (ssRNA) [Ic_S1_P4E.1_K4.1_C4.1_H4.1_A4.1_[T5G]_[A6T]_F4.1_[T8C]_[A9C]_T4.1]	1260
UCUCUUUGUACGAUUUCUCUU (ssRNA) [Ic_S1_P4E.1_K4.1_C4.1_H4.1_A4.1_[T5C]_[A6G]_[T7A]_F4.1_[A9T]_T4.1]	22.7
UCUCUUUGUACGUGCUCUCUU (ssRNA) [Ic_S1_P4E.1_K4.1_C4.1_H4.1_A4.1_[T5C]_[A6G]_F4.1_[T8G]_[A9C]_T4.1]	466
UCUCUUUGUACGCCCUCUCUU (ssRNA) [Ic_S1_P4E.1_K4.1_C4.1_H4.1_A4.1_[T5C]_[A6G]_[T7C]_F4.1_[T8C]_[A9C]_T4.1]	879
UCUCUUUGUAGUCGUUCUCUU (ssRNA) [Ic_S1_P4E.1_K4.1_C4.1_H4.1_A4.1_[T5G]_[A6T]_[T7C]_F4.1_[T8G]_[A9T]_T4.1]	1600

Binder	Kd [nM]
UCUCUUUGUAGUGUCUCUCUU (ssRNA) [Ic_S1_P4E.1_K4.1_C4.1_H4.1_A4.1_[T5G]_[A6T]_[T7G]_F4.1_[A9C]_T4.1]	1370
UCUCUUUGUAGUCGCUCUCUU (ssRNA) [Ic_S1_P4E.1_K4.1_C4.1_H4.1_A4.1_[T5G]_[A6T]_[T7C]_F4.1_[T8G]_[A9C]_T4.1]	> 2300
UCUCUUUGUAUACUUCUCUU (ssRNA) [Ic_S1_P3E.1_K3.1_C3.1_H3.1_A3.1_F3.1_[T7C]_[A8T]_T3.1]	5.59
UCUCUUUGUAGUAAUUCUCUU (ssRNA) [Ic_S1_P4E.1_K4.1_C4.1_H4.1_A4.1_[T5G]_[A6T]_[T7A]_F4.1_[T8A]_[A9T]_T4.1]	1500
UCUCUUAGUAUACAUCUCUU (ssRNA) [Ib_S1_P3E.1_K3.1_C3.1_H3.1_[T1A]_A3.1_F3.1_[T7C]_T3.1]	> 2300
UCUCUUUGUAGCUUUUCUCUU (ssRNA) [Ic_S1_P4E.1_K4.1_C4.1_H4.1_A4.1_[T5G]_[A6C]_F4.1_[A9T]_T4.1]	361
UCUCUUUGUAGUAUGUCUCUU (ssRNA) [Ic_S1_P4E.1_K4.1_C4.1_H4.1_A4.1_[T5G]_[A6T]_[T7A]_F4.1_[A9G]_T4.1]	278
UCUCUUUGUAGUCUGUCUCUU (ssRNA) [Ic_S1_P4E.1_K4.1_C4.1_H4.1_A4.1_[T5G]_[A6T]_[T7C]_F4.1_[A9G]_T4.1]	406
UCUCUUUGUACGCCAUCUCUU (ssRNA) [Ic_S1_P4E.1_K4.1_C4.1_H4.1_A4.1_[T5C]_[A6G]_[T7C]_F4.1_[T8C]_T4.1]	29.5
UCUCUUUGUAAAUAUCUCUU (ssRNA) [Ic_S1_P3E.1_K3.1_C3.1_H3.1_A3.1_[T5A]_F3.1_T3.1]	28
UCUCUUUGUAGUUAUUCUCUU (ssRNA) [Ic_S1_P4E.1_K4.1_C4.1_H4.1_A4.1_[T5G]_[A6T]_F4.1_[T8A]_[A9T]_T4.1]	685
UCUCUUUGUACGGUAUCUCUU (ssRNA) [Ic_S1_P4E.1_K4.1_C4.1_H4.1_A4.1_[T5C]_[A6G]_[T7G]_F4.1_T4.1]	13.4
UCUCUUUGUAGUUCGUCUCUU (ssRNA) [Ic_S1_P4E.1_K4.1_C4.1_H4.1_A4.1_[T5G]_[A6T]_F4.1_[T8C]_[A9G]_T4.1]	> 2300
UCUCUUUGUACGAUAUCUCUU (ssRNA) [Ic_S1_P4E.1_K4.1_C4.1_H4.1_A4.1_[T5C]_[A6G]_[T7A]_F4.1_T4.1]	2.75
UCUCUUUGUAGUACUUCUCUU (ssRNA) [Ic_S1_P4E.1_K4.1_C4.1_H4.1_A4.1_[T5G]_[A6T]_[T7A]_F4.1_[T8C]_[A9T]_T4.1]	760
UCUCUUUGUAUAACUCUCUU (ssRNA) [Ib_S1_P3E.1_K3.1_C3.1_H3.1_A3.1_F3.1_[T7A]_[A8C]_T3.1]	47
